According to article PMC11134845, “Development of a highly effective combination monoclonal antibody therapy against Herpes simplex virus” (Journal of Biomedical Science, 2024):
Values joined by “and” are separate entries in the source; they are usually repeats but may differ in a detail not shown here. Equal entries are not always repeated.

Experiments:
Details in all cases: both partners purified
[1] = target: T1, HSV-1F gB ectodomain (recombinant glycoprotein B of Herpes simplex virus 1 strain F, aa 30-729) (Herpes simplex virus 1 (strain F), UniProt P06436, biotin (EZ-Link NHS-PEG4-Biotin, gB monomer to biotin 1:3) in the BLI only); experiment: BLI
[2] = target: T2, HSV-2G gB ectodomain (recombinant glycoprotein B of Herpes simplex virus 2 strain G, aa 22-724) (Herpes simplex virus 2 (strain G), biotin (EZ-Link NHS-PEG4-Biotin, gB monomer to biotin 1:3) in the BLI only); experiment: cryo-EM structure
T2 construct: also called HSV-2 gB; recombinant HSV-2 gB; not shown: double Strep-tag, C-terminal, cleaved

[3] = target: T1, HSV-1F gB ectodomain (recombinant …); experiment: cryo-EM structure
[4] = target: T2, HSV-2G gB ectodomain (recombinant …); experiment: BLI
[5] = target: T1, HSV-1F gB ectodomain (recombinant …); experiment: cryo-EM 2D class averages; recombinant HSV-1 gB trimers incubated with a 1:1 molar mixture of HDIT101 and HDIT102 Fabs; 2D classes calculated from micrographs

B1: HDIT101 IgG (antibody, V domains shown)
VH: TLKESGPALVKPTQTLTLTCTFSGFSLSTSGMSVGWIRQPPGKALEWLAHIWWNNDKYYKPALKSRLTISKDTSKNQVVLTMTNMDPVDTATYYCARIYYGYRPYAMDYWGQGTLVTVSS
VL: IVMTQTPLSLPVTPGEPASISCRSSQSIVHSNGNTYLEWYLQKPGQSPQLLIYKVSNRFSGVPDRFSGSGSGTDFTLKISRVEAEDVGVYYCFQGSHVPWSFGQGTKLEIK
notes: also called humanized IgG HDIT101; source: GMP-grade, produced by Celonic Germany GmbH (contract manufacturer)
Question: With B1 as the binder, how does the kon [1] read?
Answer: 500000 M⁻¹ s⁻¹

B2: HDIT101 Fab (Fab, V domains shown)
VH: B1 VH
VL: B1 VL
notes: source: papain digestion of GMP-grade HDIT101 IgG1 (Celonic Germany GmbH), Pierce Fab Preparation Kit
Question: What does the source list for B2?
Answer: stoichiometry N [2]: 3 Fab per gB trimer; stoichiometry N [3]: 3 Fab per gB trimer; Kd [4]: 18.1 nM; koff [4]: 0.00379 s⁻¹; kon [4]: 212000 M⁻¹ s⁻¹; Kd [1]: 7.26 nM; koff [1]: 0.00313 s⁻¹; kon [1]: 435000 M⁻¹ s⁻¹; stoichiometry N [5]: 1 Fab per gB trimer

B3: HDIT102 Fab (Fab, V domains shown)
VH: EVQLVQSGAEVKTPGASVRVSCKASGHTFRTFDINWVRQAAGQGLEWMGWMSPNSGNTGYARQFQGRVTMTRNISANTAYMELRGLRFDDTAVYYCARGPGSTGTTGSMDVWGQGTTVTVSS
VL: QAGLTQPPSVSVAPGKTARISCGGNNIGSKSVHWYQQKPGQAPVLVIYYDSDRPSGIPERFSGSNSGNTATLTISRVEAGDEADYYCQVWDSGSVVFGGGTKLTVL
Question: How did the Kd [4] turn out when B3 was run?
Answer: 0.0329 nM

Question: And the koff [4]?
Answer: 2.86e-05 s⁻¹

Question: And the kon [4]?
Answer: 865000 M⁻¹ s⁻¹

Question: What about the Kd [1] of the same binder?
Answer: 0.0895 nM

Question: And the koff [1]?
Answer: 8.85e-05 s⁻¹

Question: What about the kon [1] of the same binder?
Answer: 992000 M⁻¹ s⁻¹

Question: And the “stoichiometry N” value [5]?
Answer: 3 Fab per gB trimer and 2 Fab per gB trimer

B4: HDIT102 IgG (antibody, V domains shown)
VH: B3 VH
VL: B3 VL
notes: also called fully human IgG HDIT102; source: research grade quality, by contract manufacturer
Question: Which kon [1] does the source give for B4 here?
Answer: 700000 M⁻¹ s⁻¹
